Test: label from the status in PepcDB records
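Note: failed if final PepcDB status was selected cloned or expressed and not failed if soluble or beyond.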

Sequence	protein production
MTTLVLRAKRWLYLLHRWMGVGLCLLFVLWFASGVVMMYVGYPNLTPAERLAHLPGLDAAQVRLGPAQALRAAGLEQAAEIRLAASRAGQPFYAVVPLAGGRTLRVDAASGQLAGRATPAQARASALAYFGARHAAREGGLVSEDAHTHTRTLDEHRPLYVFEMDDPARTRLYVSSSTGEVVRDAPRLERGWNYVGAWLHWLYPLRGAYWHDIVVWLSVLGVALTVSGTVVGLWRWRFARPYASGSRSPYRERFMRWHHIAGLLFAATTLTWIFSGLMSMNPWQVFGTRATQLDRAAYRGGPLQADNLPAGPAVAMPARKLVWTRVAGQTLLQVYGAAGAPALRTADGAAPRTLAPATLGVALGRLLPSAAPPRIEVLDGYDSYYYARAPHTMLGHVEKPLPVWRVVYDDPRGTWLHVDPRSGEILGSLDRPRRVSRWLFAFLHSWDWPPLLQRRPAWDAVLIVLSLGGLLLSGAGVVIGWRRVGRKLR	failed
MSVNMDELRHQVMINQFVLAAGCAADQAKQLLQAAHWQFETALSTFFQETNIPNSHHHH	not failed
MVVMYFLFPETTNVVIVSALNFAALFLSFFTHYTSSRKDEDLTILAFSCLFSSLLSLFFLRIFLMNPKNAWMFLSSSKLILAEGFFFFLIGKKKNSFKWLVVLTFVILFAVSVLRFDFTLHLESVSLALFSLLLLIRKPQTTLLSVSLFLYSISSIFFYFFRSAYPYHVASGSIFLMWHFVKKYVETPKEEAEKLSKELEIPPERISSAVTNLYNFLIEILRIIPEILREDDQNRVREMLSKYFSQEVSSYFPKLRDAFSKFAEEYISFLEEKQKFQDMYVVLTKNLAHNLKNPVNAIYVSAQLLKQQFPETSPVVRNIEKLCHEMTEEIERILKTSIGRSEVLRKNDVEKALEPILETARLKNLETDIEMEFDELEIDKDAFLALVLNLFSNAVKYTPSGRVVLKIEKKNDKINLRVSDTGPGLKEQNGFGLFTVKKLVNYLNGSMEVIKKDGTTFVITLPLRRDKNDSTDRGR	failed
MVKMAKMANKFKELDRTAEEKYKKGRISFRVGRFEDALAAYGEAASAWKEMADLLFDKGKETRGKEFLEKARDAKSCYGMALFKLERYEEALEIVDADLKLKPENPTRWSNRGFVLSALGRNEEALEAFEKALAFDPKSPKILTSQGIVYFKMGFLKKSLETFDRALATEPRKASDWACKIPRFSFFSRNKAPIMKPDNIETWYWKGNVLLELGEKEKALNSFRKALESDPDHLNSLLSGGDLLCEFAEYGEAFKCYVRALKLSPGNEAAEKGKEFCEAKINE	failed
WQWDLATNKFIYSDNQHRLLGVERDSFESSNDAFINFVHPEDRHVIKNGERMVLDEQQSSVAFFRVIRKDGQMRYFKSIGKLLTDSSGNKILIGINNDITEEH	failed
NILSLLLHPRLGAVIQQMLEMPGHAWTVESLASIAHMSRASFAQLFRDVSGTTPLAVLTKLRLQIAAQMFSRETLPVVVIAESVGYASESSFHKAFVREFGCTPGEYRERVRQLA	not failed
MTAPDRSPPRYKSDLIYGLNDRPHFSAAIFAALQHVLASFVGIISPTLIFGGVLGLESELPYLISMALFVSGLGTFVQARRLGPIGSGLLCVQGTSFSFISVLLSAGFMVKGRGGDTNEILSTIFGICFVAAFIEMFLSQFIGKLRKLITPVVTGTIITLMGLSLIKVAVTDMAGGYGASDLGAASNLGLAALVLLTIVVLNRFNHPMLRLGSIVIGLTLGFVVAWMLGRVDMAAMPEVPLVSVPVPFKYGFSFDLIAFIPLAVIFLISPLEAAGDLTANSMISQQPVKGPLYIKRIKSGLLADGFNSAVAAVFNSLPMVTFAQNNGVIQLTGVASRYVAYFIAGLLVLLGLFPVIGAVLQLMPKPVLGGATLIMFGTVAVAGIKILAEAGLHRRNVLIVAISLGMGLGVAAVPEVLRELPKALHNIFESPITVGAFCAIFLNIFLPEEFLELEEDEFDPEAATLKVMQDPDMSGKANS	failed
MESMSMNHRVVRHCHNKKLQQSRYSPYSKENIISTIEKEMQKDEAIRLGVELSLFVAETMVLLSDNLRSMLLFCLWVLTNAECTYFTDPVVGRLHCVMLYVLETYIKPKNGVYLADVKSNQWEVFVKSCKSFVFGIRELDRIVLILGKRESSSCEVVKTSDFEHCNQELKKLEETLRSAKDVSEANGFAREVIKSNILCLWKSLFETSQPKVINLKNRTLDMFKPLLNQAREITCSSLIASLHI	failed
MEFQLWGAKIVIEPKPDLRYLYLEITNRCNLKCEMCFKQYWEDKEGDMDWDLFLKILDDAKEFPELKMIYFGGIGEPSVHPRFMDMVREVKRRGFRLGMSTNGVLLEDKILEEFVKLGVDVVYFSMDAIPTPSNIVTLGHITSKVVESRIKKLVELKKRYKTEKPTIGVEVVATKENYKQLPEMAIYLRNLGVDSMLISNLIPMTKEHSKAIVYDGSVDMTPIVNELHQIAEGGPFMRIAEFKLRTNRYCDFIENNVTVVRWDGEVFPCYRFLHTYPEVIFGREKKVIAHSFGNVKEKSLKDIWMSEEYVRFRFLVKASAYPSCIDCPLNTSCSFALDTTQDCWGTSPSCGDCLWSRGIVLCPIPFEYMGKFL	failed
WMVQDSVGSGAALASLEGEETGRLWLAAQPEHGFQTLQGLAYALAREVRRLQPDSPYRLAGKGVLGALAYEVGLQLRGMGQTVACVALEGAPAWVRQSEALAVERSQASLPAWLRRCLSSYVPEPGDFPLQPTNMPASAEAFWRALG	failed
MPHLRTILPQLRNNWFFIALLTSCGLWCFFAPSLLGALLFSITVIRIVCTKSFPVILGGFLCSFLIVGGILIFQWLKPVSLLPKEVRLSGQLTILPDEIQVDGDQVKFPANWIVKGKRQKVMAFYQLKSVKEKQQWQQLTTTIQATAVGILDSPQGQTNKNGFNYQLFLKNQGIEAILFIEEIGQPRSFFSWRFKEIISGWRKWAMVHIQKNFAETSAMYMNALLLGFRNEEFAEISDKFSALGILHLFSLSGMHVSFFLRLFRLLMLRIARRTQESYFLWQCGFSLIYAGLTGFSVSVMRALLQTNLNTFNRRFNWQVPALDCWSLTLLVHLIVQPTLFFSVGGQFSYLLSFVLLFLEQTLVGYSSPFIKNCLGSFLLAVASLPILVQSFYEWPLLGSFLTFLLLPIFERFLLPLLTLSFFLVIIMPARYLAALLEPLFLTMNGLFEWVLVHLNPKLTIGYLNSWIQISLLLLIGFSMIYLADKSKKIFFSIGLLIVLINSKYLSPIGIVAMIDVGQGDSLFIQAPFHRKNTLIDTGGRLSFGKEAWRQRKNSRSGAEYSVIPFLKSQGVKRLDEVIITHAHEDHFGDLLAIAQKVPISVLYFPKGAAEANFSFRQVLKQLQKSGTDCRPILAPKRINGPVSFQILSPNKSSIGGNNDSIVFSTQLGGRHFLFTGDLEAEGEEQVLARYPQLKIDILKVGHHGSKTSSTKRFIKQLNPREALISAGLNNRFKHPHQETLATLEEQKINYYRTDLQGMIYYQWLPWQGLSKAKFVKEQD	failed
MARILKKNKNELLDILEDYMTDCKYRDLRRTTIRAYEQSLRLLFKFLEDDYKVIYVEDVKEEHIRNYIDFTKERGKYSYVANENNINSNVPQNRGDFGKKVSLCTLDNYLGNIKMFFTWCKDNKLISKDPSFKIKRIKYSRKAKAEITIDEFNKLLKSLDLTLFSEYRDYIVIQLLMDTGMRVGECLELREEDIDIRNKTIFISGEIAKGRRDRYVFFSNTMQRMLQKWLNYKDRYVESNYIFVTNRGGKYQVHSFEKHMRNYLKKAKIDKQITPHTLRNNFAKRFLMSGGDIYTLSRLLGHSDIRTTQSAYLDLTTSDIRKNYLKFSPLENMKKKNW	failed
MILSNYFKFLSHQLKGWPQQNYYLFYFSLGCQVMTLVSAPITALSILTFIGTTLGVLCVLAINAAKSVNGLLGVISAACFIVVGFSAKNYLSIGEQLAYVVTLDIPVLLSANWNVNMVSKIRKFTGKTWIVAIVATLVVYAISGYLIGALTDDPRPWVDAISFAICLTAGVICFLRYNNQYFWWIASGLAQMVLWFISFRQGSATLAMFINSSVYLMNDVLAFTVSPWYNKHERARLMAEEQAASDAASADASDNQAFGLNH	failed
MMGSVLPAEALVLKTGLKAPGLALAEVITSDILHSFLYGRWRNVLGEQLFEDKSHHASPKTAFTAEVLAQSFSGEVQKLSSLVLPAEVIIAQSSIPGEGLGIFSKTWIKAGTEMGPFTGRVIAPEHVDICKNNNLMWEVFNEDGTVRYFIDASQEDHRSWMTYIKCARNEQEQNLEVVQIGTSIFYKAIEMIPPDQELLVWYGNSHNTFLGIPGVPGLEEDQKKNKHEDFHPADSAAGPAGRMRCVICHRGFNSRSNLRSHMRIHTLDKPFVCRFCNRRFSQSSTLRNHVRLHTGERPYKCQVCQSAYSQLAGLRAHQKSARHRPPSTALQAHSPALPAPHAHAPALAAAAAAAAAAAAHHLPAMVL	failed
MGEAATKSDRQQNQTRLWLNILRLHGLVFGDLNRQLLDETGLSLAKFDAMAQLARNPDGLSMGKLSGALKVTNGNVSGLVNRLIKDGMVVKAMSADDRRSFSAKLTDAGLTTFKQASEAHNRILAELLRAVSDQDMVEASAALRGILESMQTGASLD	not failed
PSKKYVVDIWSDFVCPWCWIAKRRFENALNRSGMQDDVQVNVRAYRLAANQAPEPMIGALKRKLGNPASADSMMSTVSKYGRADGLDYRFDTMMFGDTADAHILVKAVEDTAVKKRLVEALYEQSTSHGRSLFDRSSLEAIAREVGVSDESIQLAWSSVELRNEMKDDESFAAQLGSGVPLFVFDSSFSVSGAQPDAVFLEALNKMVANSNPE	not failed
MNNDNNTILGFDVNLICDFFLNTERQGPGSPEVTLKALSFIDNLTNKSLIADLGCGTGGQTMILAQHVPGKITGIDFFPGFIERFNKNAEKLNLQNRVKGIVGSMDDLSFEKDSLDLIWSEGAIYNIGFERGLKEWRNYLKPGGYLAVSESVWFTDQRPAEIHDFWMSAYTEIDTVPNKVAQIQKAGYIPVATFILPENCWIEHYFAPQAKAEEIFRRKHAGSRIVEELITSNHHEAELYSKYKAYYGYAFFICKKGFSLRR	failed
MRAGIVGSGIMGRLLAFVLHNAGWQVSLFDRSNESMNCSTAAAGLLTPFSELDKSILLISTLGQESIKNCWPRIIEDLPESVYFQQSGSLVLCHPGDQAEWIHFSRRILSQLNPSNSVFQKLSHENLIALEPELTKFETAYYFPNEAHIDCQTLMLSLKNYLDSVCIPHITNTPVLSLKPGEINTKEQRYHFDVVFDCRGLGAQNVFSDLRGIRGELIWLHAPGVQLHRPIRLLHPRYSLYLVPRPGNFYLIGASEIEAEDFSPVSVRTALELLTAVYYLHRNFDEARIIKTVTHCRPTLVNHLPRIKFADGLIAVNGLYRHGYLIAPALAEEILRGVTSNFRHLNYPELWENYCDLEHHHHHH	failed
MTIFYYSFIILALLACLTVSFRIKKQQYLILYLFVIVLLSLLAGLRYDNADYENYLEIFKNPWEVSPDKGFSAFVLIVRWFTTSPIYMFLPVAIIAVSLNISSYRKYSPYLFVSVLFYFVHSFLLKEYVQIRAGLSCAICLYAIRYIEYKSLWKYIACMVIAMSIHMSSIIFFPMFWVYYFMKNKSNSCLMYFLLLSFIIGTLYPFGQVIKAYVPFLDETSRIATYANWDQFNNEIGILTNFTTLKQIILCVLCYIYWTRLKEVISCFSVLYLAYVLSTCWLMLFNDFVIIGARMATFLSVGEPIFFAGFLCLFNKQSRILVTLFFIIISCIIMDVNLHTKNLGEFKLYPLTSLF	failed
MSPPLDHAWIAARIPHSGAMCLLDQVVTWDDTHIRCTTTSHRAPDNPLRAHGRLAAVCGIEYAAQAMAVHGAILGNAQDRPRAGFLASVRSVEAHVERLDTIEAPLTIEAERIGGDGNNVLYRFSVRCGERVLLTGRAAVVLDAAGLGLPDAGALAKANAQARLEHHHHHH	failed
MSLYNYVLFDLDGTLTDSAEGITKSVKYSLNKFDIQVEDLSSLNKFVGPPLKTSFMEYYNFDEETATVAIDYYRDYFKAKGMFENKVYDGIEALLSSLKDYGFHLVVATSKPTVFSKQILEHFKLAFYFDAIVGSSLDGKLSTKEDVIRYAMESLNIKSDDAIMIGDREYDVIGALKNNLPSIGVTYGFGSYEELKNAGANYIVNSVDELHKKILELREGHHHHHH	not failed

Source: a protein production outcome set (Wang et al. 2014)
